According to the supplement of paper PMC7877785:
± gives the uncertainty stated by the source.

Assay: self-splicing fitness, log relative to wild type (ln ratio); higher = more splicing; Tetrahymena group I intron in knt gene, E. coli kanamycin selection, DiMSum; sequences stand for … in CUCUCU…GGAGGGAAAAGUUAUCAGGCAUGCACCUGGUAGCUAGUCUUUAAACCAAUAGAUUGCAUCGGUUUAAAAGGCAAGACCGUCAAAUUGCGGGAAAGGGGUCAACAGCCGUUCAGUACCAAGUCUCAGGGGAAACUUUGAGAUGGCCUUGCAAAGGGUAUGGUAAUAAGCUGACGGACAUGGUCCUAACCACGCAGCCAAGUCCUAAGUCAACAGAUCUUCUGUUGAUAUGGAUGCAGUUCACAGACUAAAUGUCGGUCGGGGAAGAUGUAUUCUUCUCAUAAGAUAUAGUCGGACCUCUCCUUAAUGGGAGCUAGCGGAUGAAGUGAUGCAACACUGGAGCCGCUGGGAACUAAUUUGUAUGCGAAAGUAUAUUGAUUAGUUUUGGAGUACUCGUGGUCG
Method in brief: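 Fitness was computed with DiMSum as the error-weighted combination of replicate fold changes, kanamycin versus none, each normalised to wild type. The library randomised all eight intron nucleotides of the P1ex region, with the intron placed in the knt kanamycin-resistance gene on pET-22b(+) in E. coli BL21(DE3). Six replicate transformations were grown overnight at 37°C or 30°C on LB agar with or without 25 μg/mL kanamycin, plus 100 μg/mL carbenicillin, 50 μM IPTG and 0.2% rhamnose. Pooled colonies were amplicon-sequenced on an Illumina HiSeq 2500.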

Row | Sequence | self-splicing fitness (ln) (30 °C) | self-splicing fitness (ln) (37 °C)
1 | CCGAAGCAAUAUUACGAGGG | -3 ± 0.18 | -1.73 ± 0.22
2 | CCGAAGCAAUAUUACGAUGU | -3.33 ± 0.27 | -1.86 ± 0.15
3 | CCGAAGCAAUAUUACGCGCG | -1.23 ± 0.11 | 0.0615 ± 0.12
4 | CCGAAGCAAUAUUACGGCAA | -3.61 ± 0.38 | -1.98 ± 0.38
5 | CCGAAGCAAUAUUACGGCAC | -4.15 ± 0.31 | -2.37 ± 0.33
6 | CCGAAGCAAUAUUACGGCGG | -3.48 ± 0.15 | -2.15 ± 0.17
7 | CCGAAGCAAUAUUACGGUCA | -3.56 ± 0.2 | -2.55 ± 0.18
8 | CCGAAGCAAUAUUACGUAUC | -2.92 ± 0.24 | -3.03 ± 0.25
9 | CCGAAGCAAUAUUACGUCGC | -3.18 ± 0.26 | -3.07 ± 0.34
10 | CCGAAGCAAUAUUACGUCGG | -3.35 ± 0.2 | -2.59 ± 0.31
11 | CCGAAGCAAUAUUACGUGAC |  | -1.4 ± 0.2
12 | CCGAAGCAAUAUUACGUGUU | -3.93 ± 0.16 | -2.89 ± 0.15
13 | CCGAAGCAAUAUUACGUUGU | -4.15 ± 0.32 | -3.37 ± 0.24
14 | CCGCAGCAAUAUUACGACAG | -0.485 ± 0.063 | 0.0928 ± 0.088
15 | CCGCAGCAAUAUUACGAGGU | -3.73 ± 0.2 | -1.84 ± 0.19
16 | CCGCAGCAAUAUUACGAUCC | -3.04 ± 0.19 | -2.71 ± 0.36
17 | CCGCAGCAAUAUUACGAUGA | -3.2 ± 0.38 | 
18 | CCGCAGCAAUAUUACGAUGC | -4.08 ± 0.28 | -2.88 ± 0.23
19 | CCGCAGCAAUAUUACGAUGG | -4.91 ± 0.28 | -2.52 ± 0.2
20 | CCGCAGCAAUAUUACGCGCG | -3.21 ± 0.2 | -1.9 ± 0.17
21 | CCGCAGCAAUAUUACGCGUU | -3.51 ± 0.14 | -2.29 ± 0.14
22 | CCGCAGCAAUAUUACGCUAU | -3.78 ± 0.3 | -3.04 ± 0.25
23 | CCGCAGCAAUAUUACGCUCA |  | -1.28 ± 0.21
24 | CCGCAGCAAUAUUACGCUGA | -3.21 ± 0.34 | 
25 | CCGCAGCAAUAUUACGGCCA | -4.11 ± 0.31 | -2.51 ± 0.26

Row | Sequence | self-splicing fitness (ln) (30 °C) | self-splicing fitness (ln) (37 °C)
26 | CCGCAGCAAUAUUACGGCGG | -4.17 ± 0.22 | -3.33 ± 0.26
27 | CCGCAGCAAUAUUACGGGCC | -2.9 ± 0.25 | -2.34 ± 0.29
28 | CCGCAGCAAUAUUACGGGGA | -3.59 ± 0.15 | -2.35 ± 0.15
29 | CCGCAGCAAUAUUACGGUAC | -3.8 ± 0.17 | -2.8 ± 0.2
30 | CCGCAGCAAUAUUACGGUAU | -4.73 ± 0.23 | -3.44 ± 0.17
31 | CCGCAGCAAUAUUACGUACC | -3.7 ± 0.28 | -3.08 ± 0.47
32 | CCGCAGCAAUAUUACGUAGG | -2.6 ± 0.068 | -2.95 ± 0.13
33 | CCGCAGCAAUAUUACGUCGA | -1.06 ± 0.059 | -0.16 ± 0.069
34 | CCGCAGCAAUAUUACGUGUU | -3.84 ± 0.14 | -3.1 ± 0.21
35 | CCGGAGCAAUAUUACGAAAU | -3.2 ± 0.27 | -0.842 ± 0.37
36 | CCGGAGCAAUAUUACGAACC |  | -1.97 ± 0.41
37 | CCGGAGCAAUAUUACGAGAC | -2.99 ± 0.38 | 
38 | CCGGAGCAAUAUUACGAGAU | -3.24 ± 0.18 | -3.52 ± 0.35
39 | CCGGAGCAAUAUUACGAGGC | -1.99 ± 0.34 | -2.86 ± 0.38
40 | CCGGAGCAAUAUUACGAUUA | -3.79 ± 0.37 | -1.17 ± 0.3
41 | CCGGAGCAAUAUUACGCCUG | -2.36 ± 0.24 | -1.8 ± 0.24
42 | CCGGAGCAAUAUUACGCGCA | -2.85 ± 0.21 | -2.29 ± 0.22
43 | CCGGAGCAAUAUUACGCUAA | -2.65 ± 0.26 | -2.96 ± 0.35
44 | CCGGAGCAAUAUUACGCUGA | -1.42 ± 0.29 | -1.75 ± 0.45
45 | CCGGAGCAAUAUUACGGCAA | -1.63 ± 0.22 | -2.48 ± 0.31
46 | CCGGAGCAAUAUUACGGGAA | -2.09 ± 0.32 | -2.13 ± 0.37
47 | CCGGAGCAAUAUUACGGGGC | -3.78 ± 0.26 | -2.55 ± 0.44
48 | CCGGAGCAAUAUUACGGGUU | -3.85 ± 0.39 | -2.67 ± 0.37
49 | CCGGAGCAAUAUUACGGUAU | -4.05 ± 0.2 | -3.34 ± 0.22
50 | CCGGAGCAAUAUUACGUUUG | -1.54 ± 0.15 | -0.756 ± 0.15
